{"source": "the nanobody polyreactivity screen of Harvey et al. (2022)"}
{"test": "yeast display, Sf9 membrane polyspecificity reagent, FACS + sequencing; frameworks hold sequencing errors", "procedure,_shortened": "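Synthetic nanobody libraries on Saccharomyces cerevisiae BJ5465 were galactose-induced for 36–48 hours, stained 1 hour at 4 °C with 10% biotinylated, detergent-solubilized Sf9 membrane reagent and enriched on streptavidin microbeads. FACS then separated cells into low and high (top ~1%) gates by anti-HA (expression) and streptavidin (reagent binding) fluorescence. Genes were colony-PCR amplified, MiSeq 2 × 250 sequenced and CDR-length filtered. A clone's polyreactivity label is that of its gate of origin.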"}
{"sequence": "QVQLVESGAGLVQAGGSLRLSCAASGRTFFRYVMGWYRQAPGKERELVAAIRSGGSTNYADSVKGRFTISLDNAKNTVYLQMNSLKPEDTAVYYCAARKWHSAYDYWVQGTQVTVSS", "polyreactivity (PSR sort gate)": "high polyreactivity"}
{"sequence": "QVQLVESGGGLVQAGGSLRLSSAASGFTLSRYAMGWYRQAPGKERELVASITSGGSTNYADSVKGRFTISRDNAKNTVYLQMNSLKPEDTAVYYCAARYPYRSYKLSHSYARPYGYWGQGTQVTVSS", "polyreactivity (PSR sort gate)": "high polyreactivity"}
{"sequence": "QVQLVESGGGLVQAGGSLRLSCAASGLTFTNYAMGWYRQAPGKERELVAAISRSGARTYYADSVKGRFTISRDNAKNTVYLQMNSLKPEDTAVYYCATRYLSRGVYNYDYWGQGTQVTVSS", "polyreactivity (PSR sort gate)": "high polyreactivity"}
{"sequence": "QVQLVESGGGLDQAGGSLRLICAASGITFFPYAMVWYRQAPGKEKELVAAISSGSSTYYADSVKGRFTISRDNAKNTVYLQMNSLKPEDTAVYYCATRRDLHDRYEYDYWGQGTQVTVSS", "polyreactivity (PSR sort gate)": "low polyreactivity"}
{"sequence": "QVQLVESGGGLVQAGGSLRLSCAASGSTFASNAMGWYRQAPGKERELVAAIDWTGASTYYADSVKGRFTISRDNAKNTVYLQMNSLKPEDTAVYYCNADEYWNSRTQGYNYWGQGTQVTVSS", "polyreactivity (PSR sort gate)": "low polyreactivity"}
{"sequence": "QVQLVESGGGLVKAGGSLRLSCAASGRIFVGYGMGWYRQAPGKERELVAAITSSGGSTYYADSVKGRFTISRDNAKNTVYLQMNILKPEDTAVYYCAAERGYHVGGSGLYDYWGQGTQVNVSS", "polyreactivity (PSR sort gate)": "low polyreactivity"}
{"sequence": "QVQLVESGGGLVQAGGSLRLSCAASGRIFTAYYAMGWYRQAPGKERELVASISSSGTYTYADSVKGRFTISRDNAKNTVYLQMNSLKPEDTAVYYCATRKLRTRRYDYGYCGQGTQVTVSS", "polyreactivity (PSR sort gate)": "low polyreactivity"}
{"sequence": "QVQLVDSGGRLEQAGGSLRLSCAASGSIFGWNAMGWYRQAPGKERELVAAINWTGGTTYYADSVKGRITISRDNAKYTVYLQMKSLKPADTAVYYCAARLTYHVAGQITRYYYWGQGTQVTVSS", "polyreactivity (PSR sort gate)": "low polyreactivity"}
{"sequence": "QVQLVESRGGLVQAGGSLRLSCAASGFIFTRNAMGWYRQAHGKVRELVAAISYSGGSTYYADSVKGRFTISRDNAKNTVYLQMNSLKPEDTAVYYCNVSPTTSGDGGGYDSWGQGTLVTVSS", "polyreactivity (PSR sort gate)": "low polyreactivity"}
{"sequence": "QVQLVESGGGLVQAGGSLRLSCAASGFTFFGNAMGWYRQAPGKERELVAAITGRAGRTYYADSVKGRFTISRDNAKNTVYLQMNSLKPEDTAVYYCAAKIRTSDMGYWGQGTQVTVSS", "polyreactivity (PSR sort gate)": "high polyreactivity"}
{"sequence": "QVQLVESGGGLVQAGGSLRLICAASGSIFTLYDMGWYRQAPGKERELVAAITSGGSTDYADSVKGRFTISRDNAKNTVYLQMNSLKPEDTAVYYCNAEAYPYWYRGASREYDYWGQGTQVTVSS", "polyreactivity (PSR sort gate)": "low polyreactivity"}
{"sequence": "QVQLVESGGGLVQAGGSLRLSCAASGFTIGKNAMGWYRQAPGKERELVAAISLSGGRTYADSVKGRFTISRDNAKNTVYLQTNSLKPEDTAVYYCAANRYPKFYWGQGTQVTVSS", "polyreactivity (PSR sort gate)": "high polyreactivity"}
{"sequence": "QVQLVESGGGLVQAGGSLRLSCAASGFTFGSYAMGWYRQAPGKERELVAAITWSGGSTYYADSVKGRFTISRDNAKNTVYLQMNSLKPEDTAVYYCNAEIRYYGYDYWGQGTQVTVSS", "polyreactivity (PSR sort gate)": "high polyreactivity"}
{"sequence": "QVQLVESGGGLVQAGGSLRLSCAASGRIFVYNTMGWYRQAPGKERELVAAIDWSGGSKYYADSVKGRFTISRDNAKNTVYLQMNSLKPEDTAVYYCNADSLIGMDYWGQGTQVTVSS", "polyreactivity (PSR sort gate)": "high polyreactivity"}
{"sequence": "QVQLVESGGGLVQAGGSLRLSCAASGSTFRVNARGWYRQAPGKERELVAAISFSAGGTYYADSVKGRFTISRDNAKNTVYLQMNSLKPEDTAVYYCAADFYYYDYWGQCTQVTVSS", "polyreactivity (PSR sort gate)": "low polyreactivity"}
{"sequence": "QVQLVESGGGLVQAGGSLRLSCAASGRTFYRYAMGWYRQAPGKERELVAAITGGGGSTYYADSVKGRFTISRDNAKNTVYLQMNSLKPEDTAVYYCNRRSYGFISYNFWGQGTQVTVSS", "polyreactivity (PSR sort gate)": "high polyreactivity"}
{"sequence": "QVQLVESGGGLVQAGGSLRLSCAASGSTFGYNAMGWYRQAPGKERELVAAISWRGGNTYYADSVKGRFTISRDNAKNTVYLQMNSLKPEDTAVYYCNKVWPRYYVHGGSRVPEYDYWGQGTQVTVSS", "polyreactivity (PSR sort gate)": "high polyreactivity"}
{"sequence": "QVQLVESGGGLVQAGGSLRLSCAASGRTIYSNAMGWYRQPPGKERELVAAITGSSGSTYYADSVKGRFTISRDNAKNTVYLQMNSLKPEDTAVYYCAASCYCSLVRQLRLRGQGTQVTVSS", "polyreactivity (PSR sort gate)": "low polyreactivity"}
{"sequence": "QVQLVESGGGLVQAGGSLRLSCAASGSIFYYNMGWYRPAPGKERELVAAISGGGGSTFYADSVKGRFTISRDNAKNTVYLQMNSLKPEDTAVYYCAARATTRRKKRMDYWGQGTQVTVSS", "polyreactivity (PSR sort gate)": "high polyreactivity"}
{"sequence": "QVQLVESGGGLVQAGGSLRLSCAASGIIFRYAMGWYRQAPGKERELVAAIRKSDGSTYYADSVKGRFTISRDNAKNTVYLQMNSLKPEDTAVYYCNAVTVGLYDYWGQGTQVTVSS", "polyreactivity (PSR sort gate)": "high polyreactivity"}
{"sequence": "QVQLVESGGGLVHAGGSLRLSCAASGSIFTRNAMGWYRQAPGKERELVAAISRRGVSTYYADSVKGRFTISRDNAKNTVYLQMNSLKPEDTAVYYCNATIRYYRRGKLYDYWGQGTQVTVSS", "polyreactivity (PSR sort gate)": "high polyreactivity"}
{"sequence": "QGQRVESGGGLGQAGGSLRISCAASGLTFHRYAMGWYRQAQGKETELVAAINYSGGRTYYADSVKGRFTISRDNAKYTVYFQMNSLKPEDTAVYYCNVARWGNIPVGEYDYWGQGTQVTVSS", "polyreactivity (PSR sort gate)": "high polyreactivity"}
{"sequence": "QVQLVESGGGLVQAGGSLRLSCAASGGMGWYRQAPGKERELVATISSVGSTNYADSVKGRFTISRDNAKNTVYLQMNSLKPEDTAVYYCNATGVQYFLYGYWGQGTQVTVSS", "polyreactivity (PSR sort gate)": "low polyreactivity"}
{"sequence": "QVQLVESGGGLVQAGGSLRFSCAASGYIFTPYAMGWYRQAPGKERELVAAISWSGGSTYYADSVKGRFTISRDNEKNTVYLQMNSLKPEDTAVYYCAAESAWGSRVFYSKFYYWGQGTQVTVSS", "polyreactivity (PSR sort gate)": "low polyreactivity"}
{"sequence": "QVQLVESGGGLVQAGGSLRLSCAASGSRNAMGWYRQEPGKERQFVAAITWNGGSTYYADSVKGRFTITRDNAKNTVYLQMNSLKPEDTAVYYCAADVVFPFSVGYDYWGQGTQVTVSS", "polyreactivity (PSR sort gate)": "low polyreactivity"}
{"sequence": "QVQLVESGGGLVQAGGSLRLSCAASGGTFYYYAMGWYRQAPGKERELVAAITGTGGRTYYADSVKGRFTISRDNAKNTVYLQMNSLKPEDTAVYYCAKYPAARAVDYWGQGTQVTVSS", "polyreactivity (PSR sort gate)": "high polyreactivity"}
{"sequence": "QVQLVESGVGLVQAGGSLRLSCAASGRPFVAYAMGWYRQAPGTERELVARISSGGGTYADSVKGRFTISRDNAKNTVYLQMNSLKPEDTAVYYCATSLQRQFDYWGQGTQVTVSS", "polyreactivity (PSR sort gate)": "low polyreactivity"}
{"sequence": "QDQLVESGGGLVQAGGSLRLSCAASGRIFVYNDMGWYIQAPGKERELVAAISSVGTTYYADSVKGRFTISRDNAKNTVYLQMNSLIPEDTAVYYCAVTRYQSPPRYYYWGQGTQVTVSS", "polyreactivity (PSR sort gate)": "low polyreactivity"}
{"sequence": "QVQLVESGGGLVQAGGSLRLSCAASGIFWANTMEWYRQAPGKERELVAAISWSGDRTYYADSVKGRFTISRDNAKNTVYLQMNSLKPEDTAVYYCAAEGTGLQRYGYFGDDGYWGQGTQVTVSS", "polyreactivity (PSR sort gate)": "low polyreactivity"}
{"sequence": "QVQLVESGGGLVQAGGSLRLSCAASGRTFSVYAMGWYRQAPGKERELVAGITSGGSTNYADSVKGRFTISRDNAKNTVYLQMNSLKPEDTAVYYCAAEDDSSTPEFDYWGQGTQVTVSS", "polyreactivity (PSR sort gate)": "low polyreactivity"}
{"sequence": "QVQLVESGGGLVQAGGSLRLSCAASGPTFYKYAMGWYRQAPGKERELVATITRRGGSTYYADSVKGRFTISRDNAKNTVYLQMNSLKPEDTAVYYCAKEIFLKGPDGHDYWGQGTQVTVSS", "polyreactivity (PSR sort gate)": "low polyreactivity"}
{"sequence": "QDQLVESGGGLVQAGGSLRLSCAASGLTFYVNAMGWYRQAPGTERELDAAITWSGGSTHYADSVKGRFTISRDNAKNTVYLQMNSLKPEDTAVYYCGRATFQNSYVAYDYCGQGTQVTVSS", "polyreactivity (PSR sort gate)": "low polyreactivity"}
{"sequence": "QVQLVESGGGLVQAGGSLRLTCAASGRIFDYNDMGWYRQAPGKERELVAAITSDGSTNYADSVKGRFTISRDNAKNTVFLQMNSLKPEDPAVYYCAADTGETFDSIYDYWGQGTQVTVSS", "polyreactivity (PSR sort gate)": "low polyreactivity"}
{"sequence": "QVQLVESGGGLVQAGCSLRLSSAASGTIFGYYTMGRYRQAPGKEREIVAAISRSGGSTYYADSVKGRFTISRDNAHNTGYLQMNSLKPEHTAVYYCNADVYWEYDYWGQGTQVTVSS", "polyreactivity (PSR sort gate)": "low polyreactivity"}
{"sequence": "QVQLVESGGGVVQAGGSLRLSCAASGRIFRYNAMGWYRQAPGKEREVVAGISFSGGSTYYADSVKGRFTISRDNAKNTVYLQMNSLKPEDTAVYYCNAYGRYSYPTFDYWGQGTQVTVSS", "polyreactivity (PSR sort gate)": "high polyreactivity"}
{"sequence": "QVQLVESGGGLVQAGGSLRLSSAASGSIFDYYAMGWSRQAPGKERELVAAISGSGGSTYYADSVKGRFTISRDNAKNTVYLQMNSLKPEDTAVYYCNVYYRRRYDYWGQGTQVTVSS", "polyreactivity (PSR sort gate)": "high polyreactivity"}
{"sequence": "QVQLVESGGGLVQAGGSLRLSCAASGRIFVYNAMGLYRQAPGKERELVAAISSTGSTNYADSVKGRFTISRDNAKNTVYLQMNSLKPEDTAVYYFAAVYYFYGYSGYYGQYDYWGQGTQVTVSS", "polyreactivity (PSR sort gate)": "low polyreactivity"}
{"sequence": "QVQLVESGGGIVQAGGSLRLSCAASGIIFTGNAMGWYIQAPGKERELVAAITSGDTTNYADSVKGRFTISRDNAKNTVYLQMNSLKPEDTAVYYCAKELQVRQAGDYWGQGTQVTVSS", "polyreactivity (PSR sort gate)": "low polyreactivity"}
{"sequence": "QVQLVESVGGLVQAGGSLRISCAASGSIFAVYAMGWYRQAPGKESELVAAITSSGGRTYYADSVKGRFTISRDNAKNTVYFQMNSLKPEDTAVYYSATRGDTRWGLDYWGQATQVTVSS", "polyreactivity (PSR sort gate)": "high polyreactivity"}
{"sequence": "QVQLVESGGGLVQAGGSLRLSCAASGSTFPSYAMGWYRQAPGKERELVAAITNGGSTTYADSVKGRFTISRDNAKNTVYLQMNSLKPDDTAVYYCAARYYYYYYYIRRDYWGQGTQVTVSS", "polyreactivity (PSR sort gate)": "low polyreactivity"}
{"sequence": "QDQLVESGGGLVQAGGSLRLSCAASGFTFYSYAMGWYRQAPGKERELVAAISYRGGSTYYADSVKGRFTISRDNAKNTVYFQMNSLKPEDTAVYYCAARSPSAAYGSYGVYYWGQGTQVTVSS", "polyreactivity (PSR sort gate)": "high polyreactivity"}
{"sequence": "EEQLVESGGGLVQPGGSLRLSCAASVYIYSRYRMGWYRQAPGKGREFVAAISGGSSPNYADCVKGRFTISRDNSKNTVYLQMNSLRAEDTAVYYCAAYKIDSDPRVYWGQGTQVTVSS", "polyreactivity (PSR sort gate)": "low polyreactivity"}
{"sequence": "QVQHEESGGGLVQAGGSLRLSCAASGRTFLQYAMGWYRQAPGKERELVDAITTSGGDTYYSDSVKGRFTISRDNAKNTVYLQMKSLKPEDTAVFYCNADFRVYIPHVPYLVDFYYWGQGTQVTVSS", "polyreactivity (PSR sort gate)": "low polyreactivity"}
